Test results taken from patent US6972178B1, “Drug screening using a proline-rich nuclear receptor co-regulatory protein/nuclear receptor co-expression system” (City of Hope, priority 1999, dated 2005).

Key:
SF1 [1] = biological target: T1, SF1 (Bos taurus, UniProt Q04752); experiment: Mammalian two-hybrid assay in SK-BR-3 cells (CAT reporter); format: cell-based, bovine; set-up: expressed in transfected cells; host or cells: SK-BR-3; conditions: pM-SF1 + pVP16-PNRC + pG5CAT
Procedure: The Mammalian MatchMaker two-hybrid assay system (Clontech) was used to confirm the interaction between PNRC and SF1 that was identified in the yeast assays. Because the assays are performed in mammalian cells, proteins are more likely to be in their native conformations, and the results are therefore more likely to represent biologically significant interactions. SK-BR-3 breast cancer cells were cotransfected with three expression plasmids, including pM-SF1 for Gal4 DNA-DB/SF1 fusion protein, pVP16-PNRC for VP16AD-PNRC fusion protein, and a third vector, pG5CAT, to provide the Gal4 DNA-binding site, a promoter, and the CAT reporter gene.
A set of plasmids, named pM-SF1, pVP16-PNRC, pVP16-PNRC270-327, and pVP16-PNRC278-300, for mammalian two-hybrid assays were prepared as follows: SF1 cDNA fragment was excised from pGBT9-SF1 and inserted in frame into Gal4 DNA-binding domain vector pM (Clontech) through an EcoRI site. PCR was used to generate PNRC full length coding region as well as the above mentioned deleted fragments with BclI at both ends. The PCR products were digested with BclI and inserted in proper reading frame into a pVP16 activation domain vector (Clontech) at a BamHI site. Mammalian two-hybrid assays in SK-BR-3 cells were performed according to the procedures described in the Clontech protocol (PT3002-1).

GR HBD = experiment: Yeast two-hybrid assay (HIS3 / β-galactosidase reporter); format: cell-based; conditions: 10 μM of deoxycorticosterone
Procedure: (§1) The protein-protein interactions between the full-length PNRC or PNRC fragments and SF1, ERRα1, and several other nuclear receptors were analyzed by yeast two-hybrid assays. The yeast two-hybrid assay was used to test if PNRC also interacts with other members of the nuclear receptor superfamily. pGBT9-ERRα-1 yeast expression plasmid was prepared by inserting the PCR-amplified ERRA-1 coding region into pGBT9 through an EcoRI site. To construct the plasmid pGBT9-ER274-595, the coding sequence from amino acids 274 to 595 (LBD) of ERα was amplified by PCR with the sense primer 5′-[…]-3′ (SEQ ID NO:1) and antisense primer 5′-[…]-3′ (SEQ ID NO:2) and cloned into the EcoRI/,SalI site of the pGBT9 yeast expression plasmid. pSG5-GRIP1 and several yeast expression plasmids coding for fusion proteins of Gal4-DBD and HBDs of AR, GR, PR, TR, RAR, and RXR in pGBT9 vector were kindly provided by Dr. Michael R. Stallcup (University of Southern California, Los Angeles, Calif.) (Voegel et al., 1996; Hong et al., 1996; Ding et al., 1998). The yeast mating approach was used in yeast two-hybrid assays to study protein-protein interactions as described in Clontech's protocol. Briefly, pGBT9 (DNA-BD vector only), pGBT9/target plasnmids for SF1, ERRα1, and other HBDs of nuclear receptors, and DNA-BD/control plasmids (as negative control) were introduced into the reporter strain Y187, and the AD vector alone or wild type PNRC and its deleted fragments-containing pACT2 derivatives were used to transform yeast strain CG1945. The yeast mating was performed by picking one colony from each type and growing both colonies in liquid YPD medium with or without a proper ligand at the following concentrations: 100 nM of estradiol for ER; 10 μM of deoxycorticosterone for GR; 100 nM of dihydrotestosterone for AR; 500 nM of progesterone for PR; 10 μM of T3 for TR; 10 μM of all-trans-retinoic acid for RAR; and 10 μM of 9-cis-retinoic acid for RXR. The same amount of an aliquot of the mating culture was spread on both SD/-Leu/-Trp plates to select diploid strains bearing both plasmids and SD/-Leu/-Trp/-His/+3-AT plates to score the growth of the diploid cells that express the two interacting target proteins. The His3 positive colonies were further analyzed for β-galactosidase activity by liquid β-galactosidase activity measurement as essentially described in the protocol.
(§2) Yeast strains Y187 expressing the Gal4DB fusion to the nuclear receptors and CG1945expressing Gal4AD alone or Gal4AD-PNRC fusion protein were mated by co-culturing, and selected for the presence of both two-hybrid plasmids. The expression of interacting hybrid proteins in yeast diploids was analyzed to determine if there was induction of HIS3 expression as shown in FIG. 1A and LacZ expression as shown in FIGS. 1B and 1C. […] As shown in FIGS. 1A-C, PNRC also interacted specifically with all seven nuclear receptor HBDs, including ER, AR, GR, TR, PR, RAR and RXR, and these interactions were completely ligand-dependent. […] However, no interactions occurred either between PNRC and an irrelevant protein such as human lamin C protein or between nuclear receptors and Gal4activation domain alone.

AR HBD = biological target: T2, AR HBD (Homo sapiens, UniProt P10275); experiment: as above; format: cell-based; conditions: 100 nM of dihydrotestosterone
T2 construct: fusion proteins of Gal4-DBD and HBDs of AR, GR, PR, TR, RAR, and RXR in pGBT9 vector; expressed in transfected cells; host or cells: yeast Y187 x CG1945 diploids; plasmid a gift of M. R. Stallcup
T2 sequence (P10275 669-900 limits assumed): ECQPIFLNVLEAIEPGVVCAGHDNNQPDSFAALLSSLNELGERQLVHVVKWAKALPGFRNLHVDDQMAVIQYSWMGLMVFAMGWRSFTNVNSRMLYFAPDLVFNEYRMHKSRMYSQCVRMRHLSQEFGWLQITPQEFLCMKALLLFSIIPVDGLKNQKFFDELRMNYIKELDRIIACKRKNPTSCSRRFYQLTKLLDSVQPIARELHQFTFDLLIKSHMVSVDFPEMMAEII
T2 sequence (Q12796 whole entry partner, the tested form may be a part): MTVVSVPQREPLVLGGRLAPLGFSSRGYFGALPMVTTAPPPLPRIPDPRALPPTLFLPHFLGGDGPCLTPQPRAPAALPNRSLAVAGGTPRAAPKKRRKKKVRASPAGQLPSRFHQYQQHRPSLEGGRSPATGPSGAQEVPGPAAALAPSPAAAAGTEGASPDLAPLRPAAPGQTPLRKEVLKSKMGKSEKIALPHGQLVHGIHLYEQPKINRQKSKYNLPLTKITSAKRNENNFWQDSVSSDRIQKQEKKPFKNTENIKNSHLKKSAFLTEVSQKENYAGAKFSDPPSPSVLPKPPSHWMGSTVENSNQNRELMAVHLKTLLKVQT
Procedure: as §1, §2

RXR HBD = experiment: as above; format: cell-based; conditions: 10 μM of 9-cis-retinoic acid
Procedure: as §1, §2

SF1 [2] = biological target: T1, SF1; experiment: as above; format: cell-based, bovine; set-up: The coding region for the wild type bovine SF1 was first subcloned into a yeast expression vector, pGBT9; expressed in transfected cells; host or cells: yeast (Y187, or Y187 x CG1945 diploids); conditions: no ligand
Procedure: as §1, §2

T1 sequence (Q04752 whole entry, the tested form may be a part): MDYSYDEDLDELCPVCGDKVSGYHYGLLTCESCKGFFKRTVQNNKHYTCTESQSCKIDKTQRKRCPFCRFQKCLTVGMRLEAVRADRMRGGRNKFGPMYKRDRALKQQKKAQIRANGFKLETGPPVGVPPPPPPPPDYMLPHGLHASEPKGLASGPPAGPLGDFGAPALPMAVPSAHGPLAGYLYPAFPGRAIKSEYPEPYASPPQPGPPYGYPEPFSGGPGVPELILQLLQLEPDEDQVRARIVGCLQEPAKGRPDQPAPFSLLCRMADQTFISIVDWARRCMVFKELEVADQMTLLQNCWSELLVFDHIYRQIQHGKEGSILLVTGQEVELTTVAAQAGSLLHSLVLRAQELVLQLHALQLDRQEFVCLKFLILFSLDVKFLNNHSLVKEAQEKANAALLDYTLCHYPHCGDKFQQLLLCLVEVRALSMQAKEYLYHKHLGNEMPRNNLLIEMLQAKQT

“PNRC: proline-rich nuclear receptor co-regulatory protein, 327 aa, SEQ ID NO:8, nuclear receptor coactivator” was tested, and the “CAT activity relative to cells transfected with only CAT reporter plasmid” value (SF1 [1]) was 5-6 fold, the “interaction with GR” value (GR HBD) was “only weak interactions were detected” and the “interaction with AR” value (AR HBD) was “only weak interactions were detected”. For the same substance, the “interaction with RXR” value (RXR HBD) was “interacts strongly” and the “interaction with SF1” value (SF1 [2]) was “interacted with orphan receptors SF1 and ERRα1 in the absence of any added activator or ligand”.
